Experiment [1] addresses T1, FLAG-Hs_FPR2 C-terminally fused to Renilla Luciferase 8 (human, UniProt P25090 1-351).
T1 sequence (looked up): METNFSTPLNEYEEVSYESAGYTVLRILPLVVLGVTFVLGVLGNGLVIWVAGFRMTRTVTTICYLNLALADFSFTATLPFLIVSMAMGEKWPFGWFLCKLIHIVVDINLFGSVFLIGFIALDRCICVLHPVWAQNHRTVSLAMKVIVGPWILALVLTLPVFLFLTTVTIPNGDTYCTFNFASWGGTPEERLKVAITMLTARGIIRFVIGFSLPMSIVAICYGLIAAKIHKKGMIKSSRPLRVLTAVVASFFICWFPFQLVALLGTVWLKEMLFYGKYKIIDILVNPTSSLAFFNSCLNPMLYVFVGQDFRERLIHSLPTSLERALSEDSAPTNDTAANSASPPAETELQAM
Nature of the experiment: cell-based or functional assay.

Experiment [2] has as its target T2, FLAG-Mm_Fpr2 C-terminally fused to Renilla Luciferase 8 (mouse, UniProt O88536 1-351).
T2 sequence (looked up): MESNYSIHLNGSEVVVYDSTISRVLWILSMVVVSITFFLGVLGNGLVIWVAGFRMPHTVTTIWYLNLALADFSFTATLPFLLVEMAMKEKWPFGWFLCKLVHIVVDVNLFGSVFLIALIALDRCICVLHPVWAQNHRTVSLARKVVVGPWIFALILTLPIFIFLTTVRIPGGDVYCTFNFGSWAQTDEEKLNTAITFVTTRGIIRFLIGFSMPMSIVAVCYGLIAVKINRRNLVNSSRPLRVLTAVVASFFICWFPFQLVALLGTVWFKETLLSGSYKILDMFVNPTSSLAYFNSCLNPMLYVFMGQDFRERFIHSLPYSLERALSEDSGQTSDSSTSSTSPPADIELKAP
In words: cell-based or functional assay.

The target in experiment [3] is T3, FLAG-tagged human FPR2 (Hs_FPR2) (human, UniProt P25090 1-351).
T3 sequence (looked up): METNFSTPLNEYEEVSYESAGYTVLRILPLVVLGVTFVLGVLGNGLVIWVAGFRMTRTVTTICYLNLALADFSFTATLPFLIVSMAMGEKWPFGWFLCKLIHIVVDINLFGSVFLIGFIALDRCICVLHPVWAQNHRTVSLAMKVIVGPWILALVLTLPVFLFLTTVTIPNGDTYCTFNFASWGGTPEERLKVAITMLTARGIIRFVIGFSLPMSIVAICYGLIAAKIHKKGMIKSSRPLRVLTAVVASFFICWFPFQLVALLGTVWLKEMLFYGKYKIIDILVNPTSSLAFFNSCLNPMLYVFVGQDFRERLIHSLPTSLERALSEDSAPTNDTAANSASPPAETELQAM
Nature of the experiment: cell-based or functional assay.

Experiment [4] deals with T4, FLAG-tagged mouse Fpr2 (Mm_Fpr2) (mouse, UniProt O88536 1-351).
T4 sequence (looked up): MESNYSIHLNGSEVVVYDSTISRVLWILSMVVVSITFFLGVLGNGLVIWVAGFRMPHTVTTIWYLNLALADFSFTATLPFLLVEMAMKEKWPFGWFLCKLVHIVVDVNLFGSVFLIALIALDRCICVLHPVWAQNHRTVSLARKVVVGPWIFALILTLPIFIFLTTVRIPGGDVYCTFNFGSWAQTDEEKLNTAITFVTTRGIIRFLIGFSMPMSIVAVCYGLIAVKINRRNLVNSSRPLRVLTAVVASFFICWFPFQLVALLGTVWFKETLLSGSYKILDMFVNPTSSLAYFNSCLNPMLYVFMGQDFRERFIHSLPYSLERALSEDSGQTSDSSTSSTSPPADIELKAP
Nature of the experiment: cell-based or functional assay.

The target in experiment [5] is T4, FLAG-tagged mouse Fpr2 (Mm_Fpr2). In words: cell-based or functional assay. The source holds these as a separate data set.
Experiment [6] deals with T3, FLAG-tagged human FPR2 (Hs_FPR2). Nature of the experiment: cell-based or functional assay. This is another data set of the same source.
The target is the same in experiment [7]. Nature of the experiment: flow cytometry on cells; competition binding: HEK293 cells stably expressing the receptor, lifted in PBS, on ice 90 min with 10 nM K(5/6-FAM)-WKYMVm and increasing unlabeled ligand; mean fluorescence of 5000 cells as % of that without competitor; One site-Fit logIC50. (In general: In flow cytometry, cells or beads pass a laser one at a time.)

For experiment [8], the target named is T4, FLAG-tagged mouse Fpr2 (Mm_Fpr2). The description is as above.
Experiment [9] addresses T1, FLAG-Hs_FPR2 C-terminally fused to …. In words: cell-based or functional assay. This is another data set of the same source.
In experiment [10] the target is T2, FLAG-Mm_Fpr2 C-terminally fused to …. In words: cell-based or functional assay. The source holds these as a separate data set.

Where no end group is shown, it is not given here. The star is where a group is joined. Palmitoyl = CCCCCCCCCCCCCCCC(=O)*

B1: F2Pal10 (Pal-Pal-KIHKKGMIKS) (peptide)
peptide: {Palmitoyl-Palmitoyl}-KIHKKGMIKS
notes: Pal is printed twice; the text speaks of N-terminal palmitoylation as the last step of the synthesis; also called pepducin; source: synthetic peptide (Fmoc solid phase, purified by preparative RP-HPLC)
For B1, in experiment [1], the “BRET of receptor-RLuc8 with Venus-mGsi: Emax (% of 1 μM WKYMVm)” value was determined as 19.4% and the “BRET of receptor-RLuc8 with Venus-mGsi: Log EC50 (M)” value was -6.78 log M. In experiment [2], the “BRET of receptor-RLuc8 with Venus-mGsi: Emax (% of 1 μM WKYMVm)” value was 24.2% and the “BRET of receptor-RLuc8 with Venus-mGsi: Log EC50 (M)” value is -6.78 log M. Also, in [3], the “ERK1/2 phosphorylation (Western blot): Emax (% of 1 μM WKYMVm)” value was 80.8% and the “ERK1/2 phosphorylation (Western blot): Log EC50 (M)” value is -7.47 log M. Also, in experiment [4], the “ERK1/2 phosphorylation (Western blot): Emax (% of 1 μM WKYMVm)” value was found to be 141% and the “ERK1/2 phosphorylation (Western blot): Log EC50 (M)” value was -7.27 log M. In addition, in experiment [5], the “receptor internalization (flow cytometry): Emax (% of 1 μM WKYMVm)” value was 12.3% and the “receptor internalization (flow cytometry): Log EC50 (M)” value is -10.5 log M. Moreover, in experiment [6], the “TruPath BRET: dissociation of Gαi2 from β3γ9, EC50 (receptor not given)” value is 130 nM. Besides, in experiment [7], the “Log IC50” value is -5.27 log M and the “Max Comp (%)” value came to 100%. Further, in [8], the “Log IC50” value was -5.38 log M and the “Max Comp (%)” value is 100%. For the same molecule, in experiment [9], the “BRET of receptor-RLuc8 with Arrestin 3-YFP: Emax (% of 1 μM WKYMVm)” value turned out to be 25.5% and the “BRET of receptor-RLuc8 with Arrestin 3-YFP: Log EC50 (M)” value was -6.55 log M. In experiment [10], the “BRET of receptor-RLuc8 with Arrestin 3-YFP: Emax (% of 1 μM WKYMVm)” value was determined as 33.4% and the “BRET of receptor-RLuc8 with Arrestin 3-YFP: Log EC50 (M)” value is -6.58 log M.

The values above are taken from PMC12881670, “Investigation into ligand selectivity and bias at the formyl peptide receptor family” (The Journal of Pharmacology and Experimental Therapeutics, 2025).
